Target: T1, human follicle stimulating hormone receptor (FSHR) (human, UniProt P23945 18-695)
T1 sequence (looked up): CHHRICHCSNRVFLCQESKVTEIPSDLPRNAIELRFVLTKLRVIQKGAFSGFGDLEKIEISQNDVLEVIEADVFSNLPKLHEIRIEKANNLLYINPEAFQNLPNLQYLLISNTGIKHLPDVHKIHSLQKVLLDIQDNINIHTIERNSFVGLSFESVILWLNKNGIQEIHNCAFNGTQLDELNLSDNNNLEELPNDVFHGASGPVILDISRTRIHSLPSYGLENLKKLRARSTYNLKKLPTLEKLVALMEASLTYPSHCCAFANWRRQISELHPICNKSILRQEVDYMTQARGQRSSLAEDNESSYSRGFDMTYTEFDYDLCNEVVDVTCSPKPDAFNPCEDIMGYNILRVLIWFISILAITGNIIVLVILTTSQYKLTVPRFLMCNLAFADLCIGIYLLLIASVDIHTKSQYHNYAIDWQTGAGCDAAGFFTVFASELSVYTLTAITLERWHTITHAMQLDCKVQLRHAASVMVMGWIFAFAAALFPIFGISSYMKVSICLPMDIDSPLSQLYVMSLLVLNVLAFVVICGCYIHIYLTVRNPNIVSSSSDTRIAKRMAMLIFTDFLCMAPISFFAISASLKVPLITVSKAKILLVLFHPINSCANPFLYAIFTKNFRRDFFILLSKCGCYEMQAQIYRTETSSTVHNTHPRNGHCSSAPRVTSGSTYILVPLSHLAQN
Test: cell-based or functional assay

B1: D2AP11-TCE (FSHRxCD3 DNA encoded bispecific T cell engager) (bispecific antibody)
chain: DIQMTQSPSSLSASVGDRVTISCRASESVDNYGISFLNWFQQKPGKAPKLLIYAASNQRSGVPSRFSGSGSGTDFTLTISSLQPEDFATYFCQQSKEVPWTFGQGTKVEIKRGGGGSGGGGSGGGGSEVQLVESGGGLVQPGGSLRLSCSFSGFSLSTSGMGVGWIRQAPGKGLEWVAHIWWDDDKRYNPALKSRFTLSVDRSKNTLYLQMNSLRAEDTATYYCVQINYGNYRFDNWGHGTLVTVSSGGGGSEVQLVESGGGLVQPGGSLRLSCAASGYSFTGYTMNWVRQAPGKGLEWVALINPYKGVSTYNQKFKDRFTISVDKSKNTAYLQMNSLRAEDTAVYYCARSGYYGDSDWYFDVWGQGTLVTVSSGGGGSGGGGSGGGGSDIQMTQSPSSLSASVGDRVTITCRASQDIRNYLNWYQQKPGKAPKLLIYYTSRLESGVPSRFSGSGSGTDYTLTISSLQPEDFATYYCQQGNTLPWTFGQGTKVEIKSS
EC50 of dose dependent killing of OVCAR3 cells (xCELLigence, human PBMCs/T cells): 0.0159 µg/mL
EC50 of dose dependent killing of OVISE-FSHR cells (xCELLigence, human PBMCs/T cells): 0.0247 µg/mL
EC50 of killing of OVCAR4 cells in presence of human PBMCs (xCELLigence): 0.0113 µg/mL
potency of killing of OVCAR4 cells compared to the anti-FSHR ab D2AP11: ~1000 fold

Reference: patent US20240398951A1 (WISTAR INSTITUTE OF ANATOMY AND BIOLOGY, published 2024)
